B1: Bim1 (yeast homolog of EB1), recombinant (natural protein, S. cerevisiae, UniProt P40013 1-344, looked up)
chain: MSAGIGESRTELLTWLNGLLNLNYKKIEECGTGAAYCQIMDSIYGDLPMNRVKFNATAEYEFQTNYKILQSCFSRHGIEKTVYVDKLIRCKFQDNLEFLQWLKKHWIRHKDESVYDPDARRKYRPIITNNSATKPRTVSNPTTAKRSSSTGTGSAMSGGLATRHSSLGINGSRKTSVTQGQLVAIQAELTKSQETIGSLNEEIEQYKGTVSTLEIEREFYFNKLRDIEILVHTTQDLINEGVYKFNDETITGHGNGNGGALLRFVKKVESILYATAEGFEMNDGEDELNDKNLGEHGTVPNQGGYANSNGEVNGNEGSNHDVIMQNDEGEVGVSNNLIIDEETF
notes: Bim1, S. cerevisiae microtubule plus end-tracking protein; CH domain, linker, coiled coil, EBH domain, C-terminal ETF; also called Bim1/EB1; source: E. coli, purified (GSTrap, further steps as in Zimniak et al 2009)
B2: Dam1 subunit within recombinant Dam1^WTc (natural protein, S. cerevisiae, UniProt P53267 1-343, looked up)
chain: MSEDKAKLGTTRSATEYRLSIGSAPTSRRSSMGESSSLMKFADQEGLTSSVGEYNENTIQQLLLPKIRELSDSIITLDSNFTRLNFIHESLADLNESLGSLLYGIMSNSWCVEFSQAPHDIQDDLIAIKQLKSLEDEKNNLVMELSNMERGIKRKKDEQGENDLAKASQNKQFNQPLFPSSQVRKYRSYDNRDKRKPSKIGNNLQVENEEDYEDDTSSEASFVLNPTNIGMSKSSQGHVTKTTRLNNNTNSKLRRKSILHTIRNSIASGADLPIENDNVVNLGDLHPNNRISLGSGAARVVNGPVTKNRNSMFSGRAERKPTESRHSVAKKTEKKINTRPPFR
notes: Dam1, subunit of the Dam1 complex, S. cerevisiae; Stood in the cross-linking experiment as a subunit of m1; source: E. coli, purified as part of Dam1c
B3: Duo1 subunit within recombinant Dam1^WTc (natural protein, S. cerevisiae, UniProt P53168 1-247, looked up)
chain: MSEQSQLDDSTIDKLIPQIFNEMRSNLNNTTNKFPKSTGGGASDNISANSNSIRSFNSITTQSLLKESESLDKITAMIKNVTAALKNNLPVYVNQVHEVCKSTNSILDSWINIHSQAGYIHKLMSDQTYLKLINDRLHNENVNTNDEDGSTLHNVIALKKKEILDLRQKLENRKGEKDAAPAKPPNQGLNPRYGVQSGRRPVPSAGISNNGRVRKTHVPASKRPSGIPRVTNRWTKPTASSSRKMFR
notes: Duo1, subunit of the Dam1 complex, S. cerevisiae; Stood in the cross-linking experiment as a subunit of m1; source: E. coli, purified as part of Dam1c
B4: Spc34 subunit within recombinant Dam1^WTc (natural protein, S. cerevisiae, UniProt P36131 1-295, looked up)
chain: MGESLDRCIDDINRAVDSMSTLYFKPPGIFHNAILQGASNKASIRKDITRLIKDCNHDEAYLLFKVNPEKQSVSRRDGKEGVFDYVIKRDTDMKRNRRLGRPGEKPIIHVPKEVYLNKDRLDLNNKRRRTATTSGGGLNGFIFDTDLIGSSVISNSSSGTFKALSAVFKDDPQIQRLLYALENGSVLMEEESNNQRRKTIFVEDFPTDLILKVMAEVTDLWPLTEFKQDYDQLYHNYEQLSSKLRFIKKEVLLQDDRLKTMSQYHPSSSHDVAKIIRKEKDEIRRLEMEIANLQE
notes: Spc34, subunit of the Dam1 complex, S. cerevisiae; Stood in the cross-linking experiment as a subunit of m1; source: E. coli, purified as part of Dam1c

Legend:
Bik1-6xHis = biological target: T1, Bik1-6xHis (S. cerevisiae, UniProt P11709 1-440); assay: SEC; analytical, Superose 6 Increase 3.2/300; 25 mM HEPES pH 7.4, 200 mM NaCl, 1 mM MgCl2, 0.5 mM TCEP, 2.5% glycerol; fractions by SDS-PAGE or Western blot; Dam1c with Bim1-Bik1 also at 5, 7.5, 10 µM input and at 100 mM NaCl; conditions: both partners purified
T1 construct: Bik1, S. cerevisiae CLIP-170 homolog; Detected with an anti-penta-His antibody in SEC fractions; also called Bik1/CLIP-170; source: E. coli BL21 Rosetta, purified (HisTrap, gel filtration)
T1 sequence (looked up): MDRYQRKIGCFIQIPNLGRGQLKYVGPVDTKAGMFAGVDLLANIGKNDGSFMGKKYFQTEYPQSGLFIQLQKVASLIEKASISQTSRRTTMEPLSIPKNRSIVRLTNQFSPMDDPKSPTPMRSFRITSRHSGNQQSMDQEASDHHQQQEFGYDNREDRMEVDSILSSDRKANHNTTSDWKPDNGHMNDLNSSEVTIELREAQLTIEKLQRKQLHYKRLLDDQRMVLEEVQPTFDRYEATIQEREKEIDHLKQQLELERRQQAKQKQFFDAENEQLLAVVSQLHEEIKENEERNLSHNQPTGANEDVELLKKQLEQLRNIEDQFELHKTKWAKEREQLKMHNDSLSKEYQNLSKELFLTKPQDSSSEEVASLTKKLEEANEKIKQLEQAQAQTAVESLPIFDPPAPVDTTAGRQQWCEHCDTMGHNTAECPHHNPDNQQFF

[1] = biological target: Dam1 complex, wild type (Dam1^WTc), recombinant, with Hsk3-6xHis (S. cerevisiae) (UniProt P53267); assay: pull-down; Ndc80c-Flag on anti-Flag M2 agarose beads (loaded from Sf9 lysate, washed); Dam1c or Bim1 alone or Dam1c pre-incubated with increasing Bim1 (up to 16 µM), 4°C 15 min; 25 mM HEPES pH 7.4, 200 mM NaCl, 0.01% Triton X-100; eluted with 3xFlag peptide, SDS-PAGE
[2] = biological target: B1; assay: cross-linking; BS3-H12/D12 600 µM, 35°C, 45 min; 60 µg Dam1c without or with 7.4 µg Bim1; cross-linked lysines identified by mass spectrometry; conditions: both partners purified
[3] = biological target: B4; assay: as above; conditions: both partners purified
[4] = biological target: B2; assay: as above; conditions: both partners purified
[5] = biological target: B3; assay: as above; conditions: both partners purified

## B1
Bik1-6xHis
  binding result: binds
[1]
  decrease of the amount of Dam1c bound to Ndc80c with Bim1 up to 16 µM: 30%

## B2
[2]
  binding result: binds

## B3
[3]
  binding result: binds
[4]
  binding result: binds
[2]
  binding result: binds

## B4
[2]
  binding result: binds

B5: Spc19 subunit within recombinant Dam1^WTc (natural protein, S. cerevisiae, UniProt Q03954 1-165, looked up)
chain: MTDALEQSVLALEGTVSVLKDSVESLKCANEPSTNLASTMLQTKRVFRLVPEYDVERSKLDLIEEVEPLVRTLGDKLRKSMGRMQRELDTLQQTYELNDLRLKKNISMDDDDALNSPDMGQEYEGRDADDVVMMASSTNEELEELKKLKEKKKQLENKLEILKQK
notes: Spc19, subunit of the Dam1 complex, S. cerevisiae; Stood in the cross-linking experiment as a subunit of m1; source: E. coli, purified as part of Dam1c
[2]
  binding result: binds
[5]
  binding result: binds

B6: Dad4 subunit within recombinant Dam1^WTc (natural protein, S. cerevisiae, UniProt P69851 1-72, looked up)
chain: MENPHEQVQANILSRIIGNVKRLNESVAILNQELVTINNRNKNLEIMGAICDNYHSSVQFNLEATNNKKPPL
notes: Dad4, subunit of the Dam1 complex, S. cerevisiae; Stood in the cross-linking experiment as a subunit of m1; source: E. coli, purified as part of Dam1c
[2]
  binding result: binds
